Data as given in the nanobody polyreactivity screen of Harvey et al. (2022).

Assay: yeast display, Sf9 membrane polyspecificity reagent, FACS + sequencing; frameworks hold sequencing errors
In short: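 A nanobody's polyreactivity label depends on the gate it was sorted from. Yeast display cells were stained with 10% biotinylated, detergent-solubilized Sf9 membrane reagent for 1 hour at 4 °C, enriched on streptavidin microbeads and sorted by FACS. The low and high (top ~1%) gates were set on anti-HA fluorescence for expression and streptavidin fluorescence for reagent binding.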

Row | Sequence | polyreactivity (PSR sort gate)
1 | QVQLVESGGGLVHAGGSLRLSCAASGSFFRSYAMGWYRQAPGKEMEWVATISSSTGSTYYADSVKGRFTISRDNAKNTVYLQMNSLKPEDTSVYYCAAVQPVKSCSGYHFWYYWGQGTQVTVSS | high polyreactivity
2 | QVQLVESGGGLVHAGGSLRLSCAASGSIFDYYAMGWYRQAPGKERELVAAISTSTSSTYYADSVKGRFTISRDNAKNTVCLQMNSLKPEDTAVYYCAAEGESQPESPGYDYWGQGTQVTVSS | low polyreactivity
3 | QVQLVESGGGLVHAGGSLRLSCAASGSIFGDYAMGWYRQAPGKERELVAAITRRGSTYYADSVKGRFTISRDNAKNTVYLQMNSLIPEDTAVFYCAKDVYPGRAGRPGIPYPYDYWGQGTQVTVSS | low polyreactivity
4 | QVQLVESGGGLVHAGGSLRLSCAASGSIFGTNAMGWYRQAPGQERELVAAISYSGGSTYYADSVKGRFTISRDPAKNTVYLQMNSLKPDDTAVYYCAKVVRYWWERDYWGKGTQVTVSS | high polyreactivity
5 | QVQLVESGGGLVHAGGSLRLSCAASGSIFGVNMGWYRQAPGKERELVASITSGGSTNYADSVKGRFTISRDNAKNTVYLQMNSLKPEDTAVYYCAARAERVREYNYWGQGTQVTVSS | low polyreactivity
6 | QVQLVESGGGLVHAGGSLRLSCAASGSIFKYYAMGWYRQAPGKERELVAAISSGGSTNYADSVKGRFTISRDNAKNTVYLQMNSLKPEDTAVYYCAVDRYCWLDGYDYWGQGTQVTVSS | high polyreactivity
7 | QVQLVESGGGLVHAGGSLRLSCAASGSIFTRNAMGWYRQAPGKERELVAAISRRGVSTYYADSVKGRFTISRDNAKNTVYLQMNSLKPEDTAVYYCNATIRYYRRGKLYDYWGQGTQVTVSS | high polyreactivity
8 | QVQLVESGGGLVHAGGSLRLSCAASGSIFVPYALGWYRQAPGKDRELVAAMTSSGSSTYYADSVKGRFTISRDNAKNTVYLQMNSLKPDDTAGYYCAADYFDWEGNGYYYWGQGNQVTVSS | high polyreactivity
9 | QVQLVESGGGLVHAGGSLRLSCAASGSIFYNYAKGWYRQAPGKERELVAAIDSGGSTYYADSVKGRFTISRDNAKNTVYLQMNSLKPEDSAVYSCAADTYWFVYYGYDYWGQGTQVTVSS | low polyreactivity
10 | QVQLVESGGGLVHAGGSLRLSCAASGSTEYNAMGWYRQSPGTQRELVAVITDSDGSTYYADSVKGRYTISRDNAKHTVYLQMNSLKREDTAVYYCAADDYAYSYGYWLTYDYWGQGPQVTVSS | low polyreactivity
11 | QVQLVESGGGLVHAGGSLRLSCAASGSTFDGYTMGWYRQAPGTERELVAAITDSGGSTYYADSVKGRFTISRDKAKNTVYLQMNSQKPEDTAVYYFAAAVPELYEVRYHDDYWGQGTQVTVSS | low polyreactivity
12 | QVQLVESGGGLVHAGGSLRLSCAASGSTFFLYAMGWYRQAHGKERELVAAISSDGSTYYADSVKGRFTISRDNAKHTVYLQMNSLKPEDTAVYYCAAEYTPSYYEYYYWGQGTQVTVSS | low polyreactivity
13 | QVQLVESGGGLVHAGGSLRLSCAASGSTFHYYAMGWYRQPPGKERELDAGITSGGGRTYADSVKGRFTISRDNAKITVYLQMNSLNPEDTAVYYCNARPSTGWTIYGVDYWGQGTQVTVSS | low polyreactivity
14 | QVQLVESGGGLVHAGGSLRLSCAASGSTFKYYAMGWYRQAPGKERELVAAISSGNSTYYADSVKGRFTISRDNAKNTVYLQMNSLKPEDTAVYYCAAYWRRDPMDYWGQGTQVTVSS | high polyreactivity
15 | QVQLVESGGGLVHAGGSLRLSCAASGSTFLSYAMGWYRQAPGKEREFVAAISWSDVNTYYADSVKGRFTISRDNAKNTVYLQMISLKPEDTAVYYCAAYYPSHDYSGFWSDTYEYWGQGTQVTVSS | low polyreactivity
16 | QVQLVESGGGLVHAGGSLRLSCAASGSTFNTNTMGWYRQAPGKERELVAAITKSGGSTYYADSVKGRFTISRDNAKNTVYLQMNSLKPEDTAVYYCNAYPDDSYKYLYWSDGDYWGQGTQVTVSS | low polyreactivity
17 | QVQLVESGGGLVHAGGSLRLSCAASGSTFSWYVMGWYRQAPGKERELVAAISYRGGRTYYADSVKGRFTISRDNAKNTVYLQMNSLKPEDTAVYYCAARGVVDAGRTNRPYDYWGQGTQVTVSS | low polyreactivity
18 | QVQLVESGGGLVHAGGSLRLSCAASGSTFYSYAMGGYRQAPGKERELVAAISRSGGRTYYADSVKGRFTISRDIAKNTVYLQMKSLKPEDTAVYYCNAVNSVTTSTRTRAKYAAYDSWGQGTQVTVSS | high polyreactivity
19 | QVQLVESGGGLVHAGGSLRLSCAASGSTYRANSMGWYRQAPGKERELVAAITRRGGSTYYADSVKGRFTISRDNAKNTVYLQMNSLKPEDTAVYYCAAASRYGEGDYWGQGTQVTVSS | high polyreactivity
20 | QVQLVESGGGLVHAGGSLRLSCAASGTTLAIYAMGWYRQAPGKERELVASISRVGSTNYADSVKGRFTISRDNAKNTVYLQRNSLKPEDTAVYYCAARRSSYVILRAYYYWGQGTQVTVSS | high polyreactivity
21 | QVQLVESGGGLVHAGGSLRLSCAAYGSTSLVNAMGWYRQAPGKERELVAAITRGGNTYYADSVKGRFTISRDNAKNTVYLQMNSLKPEDTAVYYCAAEDHTEQGQYDYWGQGTQVTVSS | low polyreactivity
22 | QVQLVESGGGLVHAGGSLRLSCAPSGSTFDDYTMGWYRPAPGKERELVAAISSAGSTNYADSVKGRFTISRDNAKNTVYLQMNSLKPEDTAVYYCAAQVHPIRYDYWGQGTQVTVSS | low polyreactivity

Row | Sequence | polyreactivity (PSR sort gate)
23 | QVQLVESGGGLVHAGGSLRLSFAASGRTFQVYAMGWSRQAPGKERELVAAITSLGGTYYADSVKGRFTISRYNAKNTVYLQMNSLKPEDTAVYYCAARARSTPRKYYYTRGYWGQGTQVTVSS | high polyreactivity
24 | QVQLVESGGGLVHAGGSLRLSSAASGRIFWYYALGWYRQPPGKERELVASIRGSGGSTYADSVKGRFTVSRENAKNTVYLPMNSLKPEDTAVYYCAASGRQRGHPMYYWRQGTQVTVSS | high polyreactivity
25 | QVQLVESGGGLVHAGGSLRLSSAASGRTFKVYAMGWYRQAPGKERELVAAITGGGSTNYADSVKGRFTISRDNAKNTVYLQMYSLKPEDTAVYYCNARYYYRLVKWSRFSSYDYWGQGTQVTVSS | low polyreactivity
26 | QVQLVESGGGLVHAGGSLRLSSAPSGSTFQAYAMGWYRAAPGKERELVAAINEGDSRTYYADSVKGRFTISRDNAKNTVYLPMNSQKPEDTAVYYCAIGNFRPYDYWGQGTQVTVSS | low polyreactivity
27 | QVQLVESGGGLVHAGGSLRLTCAASGSTFGKYAMGWYRQAPGKERELVAAITWSGASTFYADSVKGRFTISRDNAKNTVYLQMNSMKPEDTAGYYCAARSFKSYYIFDYWGQGTQVTVSS | low polyreactivity
28 | QVQLVESGGGLVHAGGSLSLSCAASGFILGVYAMGWYRQEPGKERELVAAITFTGASTYYADSVKGRFTLSRDNAKNTVYLQMNSLKPEDTAVNYCNKSSAYYRYEYWGQGTQVTVSS | low polyreactivity
29 | QVQLVESGGGLVHAGGSLSLSCAASGRTFRQYAMGWYRQAHGKERELVAAISKGGGSTYYADSEKGRFTISRDNAKNTVYLQMNSLKPEVKAVYYCNAPGYVLKGYDYWGQGTQVTVSS | high polyreactivity
30 | QVQLVESGGGLVKAGASLRLSCAASGRTFRHNARGWYRQAPGKERELVAAITIGTNTYYADSVKGRFTISRDNAKNTVYLQMNSLKPEDTEVYYCAAVKDRYAYVPPRFDYWGQGSQVTVSS | low polyreactivity
31 | QVQLVESGGGLVKAGCSLRLSCAASGRTFGTYAMGWYRQAPGKERELVAAISSGGSTYADSVKGRFTISRDNAMNTVYLQMKSLKPEDTAVYYCTTRYPMGGTYTRYPLKGDYWGQGTQVTVSS | high polyreactivity
32 | QVQLVESGGGLVKAGCSLRLTCAASARTFRWYAMGWYRQAPGKERELVATISWSSGRTRYADSVKGRFTISRDNANNTVYLQMNSLKPEETAVYYCNADQWDKSYDYWGQGSQVTVSS | high polyreactivity
33 | QVQLVESGGGLVKAGGCLRISCAASGRIFGSYAMGWYREAPGIERELVASIRSGGRTKYADSVKGRFTISRDNAKKTVYLQMNSLKPEDTAVYYCDVPIQWDYGYWGQGTQVTVSS | low polyreactivity
34 | QVQLVESGGGLVKAGGSIRISCAPSGRIFNQYGIGRNRQAPGKEMELVDAIRSGDSTNYADSVKGRFTISRDNAKNTFYLQMNRLKPEDTAVYFCARDRPGDYAGSDYWGQGTQVTVSS | low polyreactivity
35 | QVQLVESGGGLVKAGGSLGLSCAASGSIFGVNAMGWYRQAPGKERELVAAISKRGGTTYYADSVKGRFTISRDNAKNTVYVQRHSLKPEDTAVYYCNAPYLWNYYGGRYDYWGQGTQVTVSS | high polyreactivity
36 | QVQLVESGGGLVKAGGSLRISCAASGRIFGYNAMGWYRQAPGKERELVAVISTSGTITYYADSVKGRFTISRDNAKNTVYLQMNSLKPEDTAVYYCAARYYQRANGFGYWGQGTQVTVSS | low polyreactivity
37 | QVQLVESGGGLVKAGGSLRLICDASGRTFYSYAMGWYRQAPGKERELVAAINTSGGRTHYADSVKGRFTISRDNAKYTVYLHMNSLKAEDTAVYYCAAERKNKYDYWGQGTQVTVSS | high polyreactivity
38 | QVQLVESGGGLVKAGGSLRLRCAASGSIFRYYVMGWYRQAPGKERELVAAISGGSTYYADSVKGRFTISRDNAKNTVYLQLNSLKPEDTAVYYSAARGKRRSGGENYAYGYWGQGTQVTVSS | high polyreactivity
39 | QVQLVESGGGLVKAGGSLRLSCAASGFNFGGNVMGWYRQAPGKERELVAAITYSGGSTYYADSVKGRFTISRDNAKNTVYLQMNSLKPEDTAVYYCAAVQRKYYIDPAYDYWGQGTQVTVSS | low polyreactivity
40 | QVQLVESGGGLVKAGGSLRLSCAASGFTFGYYTMGWYRQAPGKERELVAAISSSGGSTHYADSVKGRFTISRDNAKNTVYLQMNSLKPEDTAVYYCAARYINRYPKAQPTDRSIYYWGQGTQVTVSS | high polyreactivity
41 | QVQLVESGGGLVKAGGSLRLSCAASGLISAVYALGWYRQAPGKERELVAAITTSGGRTYYADSVKGRFTISRDNAKNTVYLQMNSLKPEDTAVYYCAAEHVRYLNPEFDYWGQGTQVTVSS | high polyreactivity
42 | QVQLVESGGGLVKAGGSLRLSCAASGLTFYFYAMGWYRQAPGKERELVAGIRKRGGGTYYADSVKGRFTISRDNAKNTVYLQMNSLKPEDTAVYYCAKEPGWGRRSTTAYDYWGQGTQVTVSS | low polyreactivity
43 | QVQLVESGGGLVKAGGSLRLSCAASGRIFGRYAMGWYRQAPGKEREFVAAISKRGGGTYYADSVKGRFTISRDNAKNTVYLQMNSLKPEDTAVYYCAVDNSPGFDDYDYWGQGTQVTVSS | high polyreactivity
